Experimental data published in the supplement of paper PMC10567573.

B1: C9orf9 (parent)
chain: TKHKCRQLTKASLKPRGCSKPPWR

Variants of: B1
Experiment: protein stability index of a GFP-peptide fusion (GPS, HEK-293T) (PSI 1-6); higher = more stable
Settings: c terminus: a fixed tail appended
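Note: lentivirally expressed fusions sorted by FACS into six bins by GFP to DsRed ratio, PSI derived from sequencing read proportions per bin multiplied by bin number.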

Protein stability index, by site and new letter:
P21: C 2.36, T 2.56, L 3.59, D 2.93, E 2.79, S 2.4, N 2.9, Y 2.13, I 3.18, Q 3.48, V 3.09, M 2.64, K 2.76, F 2.79, H 3.41, W 2.28, G 2.81
G17: K 3.32, H 2.76, D 2.79, W 1.92, S 2.82, P 2.08, N 2.43, F 2.23, L 2.14, M 2.09, Q 3.6, Y 2.52, E 3.49, T 2.78, A 2.83, C 1.83, I 2.86, R 3.03
W23: F 2.67, M 3.05, G 2.73, C 2.89, I 3.56, K 4.63, H 4.46, A 3.89, D 4.3, E 4.29, L 3.72
Q7: N 3.14, F 1.63, A 2.96, R 2.56, M 2.14, L 1.29, H 2.5, S 3.27, P 3.14, C 2.17, E 2.73, Y 2.72, V 1.97, G 2.75, D 4.68, I 2.08, T 2.06, K 3.27
S19: A 1.5, F 2.33, T 3.02, E 2.02, Y 1.99, W 2.14, G 2.21, C 2.36, V 3.35, P 1.92, I 2.08, R 3.63, M 2.94, L 3.11, D 2.77, Q 2.44, K 2.37, N 2.44
R6: Q 3.1, V 2.84, S 2.59, N 2.78, C 2.6, D 3.03, E 3.17, Y 3.72, P 1.91, L 2.56, G 3.22, H 3.25, M 2.19, K 2.76, T 2.4, I 1.86, W 2.46
T9: G 2.56, W 2.25, N 3.87, P 3.18, K 3.57, I 2.22, M 2.48, Q 3.14, A 2.2, Y 3.38, L 2.17, V 2.92, F 4.48, S 2.27, H 2.47
L13: Q 3.57, C 3.26, W 3.03, E 2.91, N 2.92, H 2.88, I 3.22, T 3.32, M 2.8, D 3.64, V 2.33, F 2.63, G 4.47, Y 2.43, A 3.23, R 3.55, P 3.42, S 3.5
S12: G 3.76, C 2.41, W 2.09, F 2.28, H 2.35, R 3.37, K 3.81, D 2.82, M 1.54, E 2.57, N 3.19, Q 3.25, I 2.87, P 3.28, T 2.6, Y 2.06, L 2.19, A 2.98
K4: T 2.67, Q 2.88, Y 1.95, N 2.78, H 2.66, R 2.45, V 2.25, L 1.72, I 1.99, P 2.21, S 2.9, M 2.15
R16: M 2.45, V 3.76, C 2.75, D 3.28, W 1.69, S 2.89, G 2.42, K 2, I 2.56, E 2.33, L 2.56, A 2.72, H 2.6, N 3.08, Y 2.28, P 3.31, T 2.67
L8: R 3.54, Y 2.35, F 3.24, N 3.04, C 2.89, W 2.43, E 3.62, S 3.12, T 3.22, G 2.58, H 2.98, I 2.37, P 4.04, M 2.62, D 3.07, K 3.02, A 3.21
P15: N 2.86, E 2.59, D 3.17, C 2.5, T 2.67, K 3.52, W 2.22, S 3, Y 1.68, G 3.41, H 4.16, R 3.93, F 2.77, I 2.66, M 2.32, L 2.01
P22: H 2.98, F 1.73, W 1.89, I 2.02, M 2.76, A 2.97, R 2.51, K 3.03, E 2.98, Y 2.62, S 3.14, C 1.83, T 3.03, G 3.09, D 2.38, Q 2.99, N 2.32
K14: C 2.63, T 3.17, W 2.56, D 2.2, M 1.73, F 2.78, S 2.86, A 2.24, L 2.75, P 2.98, Y 1.54, N 3.41, V 2.79, Q 2.68, E 3, R 2.52, I 2.2
C5: V 2.88, Y 2.88, F 2.4, D 3.56, R 3.76, G 2.21, A 3.24, T 2.24, W 2.17, S 2.87, N 2.15, L 2.2, Q 3.33, E 3.12, K 3.65, H 2.44, M 1.84
K10: Y 2.53, W 2.46, R 3.59, P 2.71, N 2.8, L 2.21, Q 2.77, H 2.11, M 2.38, F 2.58, I 2.73, E 1.74, T 3.42, S 3.07, D 1.94
C18: L 3.6, P 3.32, Q 3.32, W 2.06, G 3.76, I 2.2, E 3.01, N 3.22, F 2.69, V 2.1, D 3.06, R 3.03, S 1.35, A 2.71, M 2.58, K 3.42, Y 2.18, H 3.02, T 3.11
A11: P 3.89, W 2.27, T 2.92, C 2.23, L 2.59, N 2.95, M 1.94, D 2.81, Q 2.16, V 2.57, I 2.29, Y 2.48, E 2.27, H 3.04, F 1.67, K 2.85, S 2.78, G 3.46
K20: N 2.95, G 2.64, A 2.41, S 2.9, L 2.3, M 1.76, V 2.2, D 1.92, E 2.41, H 2.76, W 1.94, R 3.14, Q 2.45, P 3.42, T 2.21, Y 3.56, I 2.37, C 2.23, F 2.32
